According to the supplement of paper PMC10724198:
± gives the standard deviation of the averaged measurements.

How the values were obtained:
Saccharomyces cerevisiae [1] = assay: protein stability index of tFT-peptide fusion (C-terminal peptide) (PSI (0-1 scale)); higher = more stable (slower turnover)
Procedure: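 MPS profiling in S. cerevisiae of the tFT-X12 degron library: putative degron peptides plus stable controls, 12 aa, fused to the C-terminus of a sfGFP-mCherry timer. Cells are FACS-sorted into 8 mCherry/sfGFP bins and deep-sequenced. PSI runs from 0 (unstable) to 1 (stable). Backgrounds are wild type, das1Δ and doa10Δ at 30 °C, and wild type, das1Δ, cdc34-1 and cdc53-1 at 37 °C; 2-3 technical replicates each.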

Saccharomyces cerevisiae [2] = assay: as above; settings: genetic background: wild type; temperature: 30 C
[3] = genetic background: cdc34-1, temperature: 37 C
[4] = genetic background: cdc53-1, temperature: 37 C
[5] = genetic background: das1 deletion, temperature: 30 C
[6] = genetic background: das1 deletion, temperature: 37 C
[7] = genetic background: doa10 deletion, temperature: 30 C
[8] = genetic background: wild type, temperature: 30 C
[9] = genetic background: wild type, temperature: 37 C
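Also: PSI is a weighted mean of sequencing reads over stability bins, variants kept only with over 10 reads, mCherry proximal and sfGFP distal, peptide attached via GGGS linker.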

| Sequence | protein stability index (Saccharomyces cerevisiae [1]; [3]) | protein stability index (Saccharomyces cerevisiae [1]; [4]) | protein stability index (Saccharomyces cerevisiae [1]; [5]) | protein stability index (Saccharomyces cerevisiae [1]; [6]) | protein stability index (Saccharomyces cerevisiae [1]; [7]) | protein stability index (Saccharomyces cerevisiae [1]; [8]) | protein stability index (Saccharomyces cerevisiae [1]; [9]) | protein stability index (Saccharomyces cerevisiae [2]) |
| --- | --- | --- | --- | --- | --- | --- | --- | --- |
| IRVLACFLFAVS | 0.202 ± 0.016 | 0.305 ± 0.017 | 0.172 ± 0.0094 | 0.32 ± 0.0072 | 0.095 ± 0.0081 | 0.12 ± 0.022 | 0.247 ± 0.025 | 0.17 ± 0.01 |
| IVFGWGVEWGRL | 0.757 ± 0.038 | 0.803 ± 0.027 | 0.692 ± 0.014 | 0.7973 ± 0.0035 | 0.691 ± 0.038 | 0.701 ± 0.021 | 0.783 ± 0.017 | 0.69 ± 0.28 |
| IVLCVFTVDSDF | 0.36 ± 0.0079 | 0.478 ± 0.058 | 0.314 ± 0.024 | 0.5441 ± 0.0044 | 0.266 ± 0.006 | 0.291 ± 0.021 | 0.5126 ± 0.0039 | 0.407 ± 0.0073 |
| IVSFRLDLSLAV | 0.532 ± 0.069 | 0.5949 ± 0.0024 | 0.452 ± 0.023 | 0.55891 ± 0.00017 | 0.448 ± 0.014 | 0.458 ± 0.02 | 0.5467 ± 0.0024 | 0.534 ± 0.051 |
| IVWVSSFVCRSV | 0.508 ± 0.082 | 0.574 ± 0.02 | 0.436 ± 0.0072 | 0.524 ± 0.0075 | 0.447 ± 0.015 | 0.4257 ± 0.003 | 0.516 ± 0.025 | 0.43 ± 0.044 |
| IWVVIISDSRVG | 0.33375 ± 0.00011 | – | 0.283 ± 0.059 | 0.488 ± 0.02 | 0.247 ± 0.019 | 0.342 ± 0.094 | 0.4636 ± 0.0027 | 0.352 ± 0.0071 |
| IWVWMLSVWLGG | 0.303 ± 0.016 | 0.3731 ± 0.002 | 0.291 ± 0.021 | 0.409 ± 0.022 | 0.273 ± 0.021 | 0.288 ± 0.017 | 0.407 ± 0.018 | 0.349 ± 0.013 |
| IYFFVLRLRLCG | 0.278 ± 0.004 | 0.291 ± 0.021 | 0.235 ± 0.029 | 0.428 ± 0.0065 | 0.16 ± 0.0036 | 0.162 ± 0.015 | 0.253 ± 0.0032 | 0.233 ± 0.1 |
| KIHILVVQIATR | 0.0402 ± 0.0097 | 0.134 ± 0.0054 | 0.0541 ± 0.0098 | 0.1391 ± 0.00019 | 0.0346 ± 0.0032 | 0.0319 ± 0.013 | 0.114 ± 0.0046 | 0.0736 ± 0.038 |
| KKNITRLKNKMT | 0.535 ± 0.032 | 0.676 ± 0.033 | 0.678 ± 0.031 | 0.691 ± 0.059 | 0.212 ± 0.045 | 0.199 ± 0.093 | 0.392 ± 0.086 | 0.416 ± 0.14 |
| KLLISLTWFCVL | 0.395 ± 0.036 | 0.476 ± 0.014 | 0.373 ± 0.029 | 0.527 ± 0.019 | 0.165 ± 0.0032 | 0.192 ± 0.028 | 0.3344 ± 0.00067 | 0.284 ± 0.092 |
| KLRMGRYIVRII | 0.6637 ± 0.0034 | 0.661 ± 0.041 | 0.569 ± 0.022 | 0.6655 ± 0.0023 | 0.152 ± 0.024 | 0.135 ± 0.019 | 0.242 ± 0.012 | 0.259 ± 0.0076 |
| KVFWRPAWVAEV | 0.6563 ± 0.0016 | 0.7475 ± 0.0067 | 0.631 ± 0.016 | 0.733 ± 0.0084 | 0.237 ± 0.011 | 0.28 ± 0.034 | 0.512 ± 0.013 | 0.371 ± 0.026 |
| LAVFSSPELSFP | 0.727 ± 0.012 | 0.788 ± 0.015 | 0.6631 ± 0.0019 | 0.761 ± 0.013 | 0.66 ± 0.034 | 0.676 ± 0.0088 | 0.777 ± 0.0036 | 0.756 ± 0.024 |
| LCFTSVFTLFIC | 0.288 ± 0.028 | 0.469 ± 0.026 | 0.382 ± 0.026 | 0.511 ± 0.006 | 0.0848 ± 0.017 | 0.0664 ± 0.0089 | 0.0756 ± 0.015 | 0.101 ± 0.024 |
| LCLLPVCLWDVG | 0.451 ± 0.026 | 0.513 ± 0.016 | 0.447 ± 0.0076 | 0.501 ± 0.0082 | 0.453 ± 0.0074 | 0.439 ± 0.017 | 0.49 ± 0.0072 | 0.461 ± 0.023 |
| LCSCAVVICCSL | 0.445 ± 0.0054 | 0.4359 ± 0.0021 | 0.299 ± 0.031 | 0.4631 ± 0.0044 | 0.274 ± 0.0047 | 0.309 ± 0.0072 | 0.441 ± 0.019 | 0.377 ± 0.04 |
| LCSVWVGIVLLC | 0.156 ± 0.011 | 0.236 ± 0.045 | 0.23 ± 0.02 | 0.313 ± 0.014 | 0.0996 ± 0.0034 | 0.0964 ± 0.013 | 0.107 ± 0.019 | 0.165 ± 0.047 |
| LDLSSLRCRYLL | 0.639 ± 0.058 | 0.725 ± 0.034 | 0.657 ± 0.021 | 0.765 ± 0.021 | 0.185 ± 0.011 | 0.214 ± 0.014 | 0.427 ± 0.0081 | 0.343 ± 0.099 |
| LDTTSRSRAKIS | 0.509 ± 0.031 | 0.6775 ± 0.0026 | 0.625 ± 0.022 | 0.718 ± 0.013 | 0.0782 ± 0.032 | 0.0968 ± 0.048 | 0.138 ± 0.021 | 0.164 ± 0.032 |

| Sequence | protein stability index (Saccharomyces cerevisiae [1]; [3]) | protein stability index (Saccharomyces cerevisiae [1]; [4]) | protein stability index (Saccharomyces cerevisiae [1]; [5]) | protein stability index (Saccharomyces cerevisiae [1]; [6]) | protein stability index (Saccharomyces cerevisiae [1]; [7]) | protein stability index (Saccharomyces cerevisiae [1]; [8]) | protein stability index (Saccharomyces cerevisiae [1]; [9]) | protein stability index (Saccharomyces cerevisiae [2]) |
| --- | --- | --- | --- | --- | --- | --- | --- | --- |
| LFFGLCFVFFGF | 0.384 ± 0.022 | 0.459 ± 0.0067 | 0.362 ± 0.032 | 0.48 ± 0.0058 | 0.407 ± 0.015 | 0.366 ± 0.013 | 0.4582 ± 0.0013 | 0.378 ± 0.046 |
| LFFLSASFFFFF | 0.458 ± 0.011 | 0.554 ± 0.0066 | 0.449 ± 0.034 | 0.547 ± 0.0075 | 0.222 ± 0.0092 | 0.207 ± 0.033 | 0.356 ± 0.067 | 0.289 ± 0.0064 |
| LFFSPRRLSPPT | 0.705 ± 0.024 | 0.7533 ± 0.0049 | 0.695 ± 0.03 | 0.778 ± 0.022 | 0.688 ± 0.019 | 0.695 ± 0.015 | 0.746 ± 0.022 | 0.748 ± 0.011 |
| LFIVTFIPVLFS | 0.49 ± 0.064 | 0.545 ± 0.034 | 0.374 ± 0.016 | 0.623 ± 0.0088 | 0.41 ± 0.0081 | 0.384 ± 0.041 | 0.59 ± 0.08 | 0.494 ± 0.0074 |
| LFMLHFLAVLRY | 0.124 ± 0.054 | 0.1407 ± 0.00041 | 0.272 ± 0.037 | 0.3358 ± 0.003 | 0.337 ± 0.017 | 0.242 ± 0.027 | 0.311 ± 0.011 | 0.308 ± 0.099 |
| LFSFVCLVFFLW | 0.312 ± 0.017 | 0.375 ± 0.006 | 0.291 ± 0.03 | 0.441 ± 0.0094 | 0.306 ± 0.032 | 0.27 ± 0.026 | 0.4178 ± 0.00065 | 0.38 ± 0.07 |
| LFSPLKGILSVM | 0.589 ± 0.0073 | 0.664 ± 0.011 | 0.51 ± 0.032 | 0.691 ± 0.0074 | 0.2641 ± 0.00021 | 0.316 ± 0.027 | 0.5081 ± 0.0023 | 0.448 ± 0.018 |
| LFTTYVFLVFFQ | 0.345 ± 0.011 | 0.474 ± 0.0096 | 0.337 ± 0.027 | 0.511 ± 0.0082 | 0.2692 ± 0.0019 | 0.29 ± 0.018 | 0.4367 ± 0.0009 | 0.372 ± 0.012 |
| LFVFTYPFLSWL | 0.617 ± 0.011 | 0.66 ± 0.011 | 0.591 ± 0.042 | 0.6963 ± 0.0031 | 0.552 ± 0.028 | 0.514 ± 0.016 | 0.615 ± 0.0094 | 0.478 ± 0.0061 |
| LFVMVSVSGLVV | 0.0501 ± 0.016 | 0.0999 ± 0.071 | 0.159 ± 0.031 | 0.255 ± 0.0059 | 0.145 ± 0.0021 | 0.16 ± 0.026 | 0.235 ± 0.0073 | 0.261 ± 0.017 |
| LFVVHCFLSVSS | 0.0267 ± 0.0027 | 0.0524 ± 0.033 | 0.0648 ± 0.021 | 0.165 ± 0.0062 | 0.0415 ± 0.0025 | 0.0374 ± 0.017 | 0.133 ± 0.029 | 0.109 ± 0.039 |
| LFWFRGTIVTPR | 0.693 ± 0.027 | 0.726 ± 0.017 | 0.638 ± 0.015 | 0.7371 ± 0.0069 | 0.635 ± 0.019 | 0.6335 ± 0.0044 | 0.705 ± 0.018 | 0.693 ± 0.034 |
| LGCFGSSFVFCC | 0.565 ± 0.015 | 0.668 ± 0.02 | 0.553 ± 0.029 | 0.685 ± 0.015 | 0.138 ± 0.0034 | 0.155 ± 0.017 | 0.355 ± 0.0038 | 0.23 ± 0.016 |
| LGRVSAKFFCVL | 0.654 ± 0.066 | 0.74 ± 0.013 | 0.646 ± 0.014 | 0.7237 ± 0.0027 | 0.13 ± 0.015 | 0.134 ± 0.022 | 0.246 ± 0.018 | 0.239 ± 0.022 |
| LGVCLFFVRCWS | 0.1796 ± 0.0014 | 0.205 ± 0.0098 | 0.189 ± 0.033 | 0.324 ± 0.019 | 0.159 ± 0.025 | 0.184 ± 0.033 | 0.271 ± 0.034 | 0.174 ± 0.047 |
| LIFRLCVCGVFW | 0.516 ± 0.03 | 0.549 ± 0.015 | 0.468 ± 0.044 | 0.5218 ± 0.0011 | 0.278 ± 0.017 | 0.271 ± 0.032 | 0.376 ± 0.009 | 0.4101 ± 0.00073 |
| LILRVLFLFEPC | 0.4385 ± 0.0028 | 0.4842 ± 0.0035 | 0.389 ± 0.026 | 0.511 ± 0.0049 | 0.395 ± 0.022 | 0.368 ± 0.031 | 0.481 ± 0.0066 | 0.42 ± 0.025 |
| LIRLCVAPMVCR | 0.455 ± 0.02 | 0.48 ± 0.0056 | 0.349 ± 0.023 | 0.5145 ± 0.0016 | 0.32 ± 0.005 | 0.349 ± 0.02 | 0.485 ± 0.011 | 0.438 ± 0.015 |
| LKKTLNGRRKMI | 0.626 ± 0.019 | 0.73 ± 0.042 | 0.638 ± 0.048 | 0.736 ± 0.015 | 0.239 ± 0.063 | 0.282 ± 0.036 | 0.373 ± 0.02 | 0.416 ± 0.037 |
